Source: publication PMC9482650, “Quantitative fragmentomics allow affinity mapping of interactomes” (Nature Communications, 2022)
Each block holds one binder with its values, some of them ahead of it.

Legend:
Assay in all cases: holdup assay
Design in all cases: key: below the threshold = too weak to quantify, mostly under pKd 3.1 to 4
[1] = target: SCRIB_1, Q14160
[2] = target: GRIP2_6, Q9C0E4
[3] = target: NHERF2_2, Q15599
[4] = target: T1, DFNB31_3, Q9P202
T1 sequence (Q9P202 811-907, limits assumed, looked up): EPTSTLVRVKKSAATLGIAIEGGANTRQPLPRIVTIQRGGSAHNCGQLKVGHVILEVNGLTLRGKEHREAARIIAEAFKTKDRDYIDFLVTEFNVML

[5] = target: DLG2_2, Q15700
[6] = target: GOPC, Q9HD26
[7] = target: IL16_4, Q14005
Chain of IL16_4, Q14005 (Q14005 1229-1329): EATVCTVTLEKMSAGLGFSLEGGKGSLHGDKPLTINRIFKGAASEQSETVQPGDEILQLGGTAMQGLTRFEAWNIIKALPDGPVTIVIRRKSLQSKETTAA

[8] = target: MAGI2_3, Q86UL8
Chain of MAGI2_3, Q86UL8 (Q86UL8 600-682): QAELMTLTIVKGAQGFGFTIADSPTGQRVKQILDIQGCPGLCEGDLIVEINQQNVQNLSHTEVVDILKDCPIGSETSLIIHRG

[9] = target: T2, NHERF3_1, Q5T2W1
T2 sequence (Q5T2W1 4-100, limits assumed, looked up): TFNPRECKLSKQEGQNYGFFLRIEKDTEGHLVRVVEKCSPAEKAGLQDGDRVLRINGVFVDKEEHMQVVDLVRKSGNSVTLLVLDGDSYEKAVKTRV

[10] = target: T3, MPDZ_10, O75970
T3 sequence (O75970 1624-1722, limits assumed, looked up): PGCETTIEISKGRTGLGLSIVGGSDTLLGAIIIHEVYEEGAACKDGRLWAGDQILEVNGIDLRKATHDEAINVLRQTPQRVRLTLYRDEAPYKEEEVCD

[11] = target: T4, SNTA1, Q13424
T4 sequence (Q13424 82-180, limits assumed, looked up): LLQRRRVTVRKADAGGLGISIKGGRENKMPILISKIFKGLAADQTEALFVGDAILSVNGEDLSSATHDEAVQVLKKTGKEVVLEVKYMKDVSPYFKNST

[12] = target: T5, RAPGEF6, Q8TEU7
T5 sequence (Q8TEU7 525-625, limits assumed, looked up): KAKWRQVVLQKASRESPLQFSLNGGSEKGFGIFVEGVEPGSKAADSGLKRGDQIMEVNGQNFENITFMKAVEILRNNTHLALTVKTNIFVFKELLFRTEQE

[13] = target: DLG5_1, Q8TDM6
Chain of DLG5_1, Q8TDM6 (Q8TDM6 617-713): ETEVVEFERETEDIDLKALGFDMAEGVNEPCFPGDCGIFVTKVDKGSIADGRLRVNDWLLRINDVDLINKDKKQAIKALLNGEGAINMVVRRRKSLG

[14] = target: T6, LIN7C, Q9NUP9
T6 sequence (Q9NUP9 88-185, limits assumed, looked up): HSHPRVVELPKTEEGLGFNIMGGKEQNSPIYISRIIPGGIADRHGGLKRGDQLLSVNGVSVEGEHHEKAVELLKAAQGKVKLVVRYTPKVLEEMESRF

[15] = target: Inadl_1, Q8NI35
Chain of Inadl_1, Q8NI35 (Q8NI35 113-229): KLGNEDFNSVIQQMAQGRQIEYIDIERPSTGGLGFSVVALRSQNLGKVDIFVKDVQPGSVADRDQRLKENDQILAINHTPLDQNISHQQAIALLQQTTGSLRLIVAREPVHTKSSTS

[16] = target: CASK, O14936
Chain of CASK, O14936 (O14936 487-570): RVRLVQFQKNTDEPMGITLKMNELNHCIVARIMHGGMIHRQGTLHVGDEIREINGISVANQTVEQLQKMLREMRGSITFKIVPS

[17] = target: FRMPD4, Q14CM0
Chain of FRMPD4, Q14CM0 (Q14CM0 67-160): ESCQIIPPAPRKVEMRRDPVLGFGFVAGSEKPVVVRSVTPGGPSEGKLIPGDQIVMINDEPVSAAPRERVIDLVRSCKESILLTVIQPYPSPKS

[18] = target: T7, SNTG1, Q9NSN8
T7 sequence (Q9NSN8 52-150, limits assumed, looked up): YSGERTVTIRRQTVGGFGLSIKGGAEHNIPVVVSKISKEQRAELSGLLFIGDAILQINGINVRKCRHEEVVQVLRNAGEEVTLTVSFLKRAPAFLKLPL

[19] = target: FRMPD2_2, Q68DX3
Chain of FRMPD2_2, Q68DX3 (Q68DX3 944-1038): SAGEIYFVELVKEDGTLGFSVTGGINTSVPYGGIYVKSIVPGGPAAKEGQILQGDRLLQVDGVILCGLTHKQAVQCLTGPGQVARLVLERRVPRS

[20] = target: T8, PARD3B_1, Q8TEW8
T8 sequence (Q8TEW8 196-299, limits assumed, looked up): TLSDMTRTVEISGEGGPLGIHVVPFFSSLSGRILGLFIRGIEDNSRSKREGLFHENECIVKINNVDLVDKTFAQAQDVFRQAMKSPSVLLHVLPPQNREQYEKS

[21] = target: DLG2_3, Q15700
[22] = target: GRID2IP_1, A4D2P6
Chain of GRID2IP_1, A4D2P6 (A4D2P6 1-87): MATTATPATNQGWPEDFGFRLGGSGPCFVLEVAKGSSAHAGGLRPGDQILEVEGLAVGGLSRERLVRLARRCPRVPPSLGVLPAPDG

[23] = target: MAGI2_2, Q86UL8
Chain of MAGI2_2, Q86UL8 (Q86UL8 410-522): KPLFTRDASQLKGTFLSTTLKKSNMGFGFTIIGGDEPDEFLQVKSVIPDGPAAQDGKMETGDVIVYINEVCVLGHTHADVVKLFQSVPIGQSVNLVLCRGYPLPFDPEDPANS

[24] = target: T9, MPDZ_12, O75970
T9 sequence (O75970 1857-1958, limits assumed, looked up): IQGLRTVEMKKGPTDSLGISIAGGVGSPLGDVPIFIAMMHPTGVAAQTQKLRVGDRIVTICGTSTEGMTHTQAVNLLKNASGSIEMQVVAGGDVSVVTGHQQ

[25] = target: LDB3, O75112
Chain of LDB3, O75112 (O75112 1-94): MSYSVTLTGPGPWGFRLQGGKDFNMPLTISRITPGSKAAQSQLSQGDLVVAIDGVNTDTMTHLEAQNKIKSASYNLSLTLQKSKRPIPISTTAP

[26] = target: GIPC2, Q8TF65
Chain of GIPC2, Q8TF65 (Q8TF65 112-203): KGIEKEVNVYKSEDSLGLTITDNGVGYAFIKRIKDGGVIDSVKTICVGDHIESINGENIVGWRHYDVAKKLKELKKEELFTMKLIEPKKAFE

[27] = target: T10, APBA3_1, O96018
T10 sequence (O96018 389-490, limits assumed, looked up): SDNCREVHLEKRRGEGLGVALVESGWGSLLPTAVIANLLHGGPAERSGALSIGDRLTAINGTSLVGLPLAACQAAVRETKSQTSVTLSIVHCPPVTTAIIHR

[28] = target: TJP1_3, Q07157
Chain of TJP1_3, Q07157 (Q07157 416-512): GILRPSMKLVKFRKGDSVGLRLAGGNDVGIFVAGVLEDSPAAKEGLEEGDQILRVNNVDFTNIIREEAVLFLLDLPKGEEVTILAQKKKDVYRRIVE

[29] = plain residues with an end cap or a label only (N-terminal biotin on a linker: ahx)
[30] = plain residues with an end cap or a label only (N-terminal biotin on a linker: ado-ado)

Chain of NHERF2_2, Q15599 (Q15599 142-238): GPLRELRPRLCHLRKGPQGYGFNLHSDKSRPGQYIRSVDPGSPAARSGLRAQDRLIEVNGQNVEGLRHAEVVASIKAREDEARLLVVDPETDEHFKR
Chain of GRIP2_6, Q9C0E4 (Q9C0E4 648-740): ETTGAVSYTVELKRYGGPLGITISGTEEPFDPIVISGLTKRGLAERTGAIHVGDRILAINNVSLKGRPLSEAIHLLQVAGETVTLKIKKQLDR
Chain of SCRIB_1, Q14160 (Q14160 718-814): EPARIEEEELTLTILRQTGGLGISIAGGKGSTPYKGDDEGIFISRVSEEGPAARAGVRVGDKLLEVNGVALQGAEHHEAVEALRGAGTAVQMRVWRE

pKd [1, 29]: below the threshold | pKd [2, 29]: below the threshold | pKd [3, 29]: below the threshold | pKd [4, 29]: below the threshold | pKd [5, 29]: below the threshold | pKd [6, 29]: below the threshold | pKd [7, 29]: below the threshold | pKd [8, 29]: below the threshold | pKd [9, 29]: below the threshold | pKd [10, 29]: 3.9 | pKd [11, 29]: below the threshold | pKd [12, 29]: below the threshold | pKd [13, 29]: below the threshold | pKd [14, 29]: below the threshold | pKd [15, 29]: below the threshold | pKd [16, 29]: below the threshold | pKd [17, 29]: below the threshold | pKd [18, 29]: below the threshold | pKd [19, 29]: below the threshold | pKd [20, 29]: below the threshold | pKd [21, 29]: below the threshold | pKd [22, 29]: below the threshold | pKd [23, 29]: below the threshold | pKd [24, 29]: below the threshold | pKd [25, 29]: below the threshold | pKd [26, 29]: 3.78 | pKd [27, 29]: below the threshold | pKd [28, 29]: below the threshold
Binder: TESNLQTSSC [CGN, Q9P2M7]

pKd [1, 30]: below the threshold | pKd [2, 30]: below the threshold | pKd [3, 30]: 3.6 | pKd [4, 30]: 4.06 | pKd [5, 30]: below the threshold | pKd [6, 30]: below the threshold | pKd [7, 30]: 3.73 | pKd [8, 30]: 3.48 | pKd [9, 30]: 4.55 | pKd [10, 30]: 3.51 | pKd [11, 30]: below the threshold | pKd [12, 30]: below the threshold | pKd [13, 30]: 3.59 | pKd [14, 30]: below the threshold | pKd [15, 30]: below the threshold | pKd [16, 30]: below the threshold | pKd [17, 30]: 3.56 | pKd [18, 30]: below the threshold | pKd [19, 30]: below the threshold | pKd [20, 30]: 3.51 | pKd [21, 30]: below the threshold | pKd [22, 30]: below the threshold | pKd [23, 30]: below the threshold | pKd [24, 30]: below the threshold | pKd [25, 30]: below the threshold | pKd [26, 30]: below the threshold | pKd [27, 30]: below the threshold | pKd [28, 30]: 3.54
Binder: GTGYDRKDYV [CLDN3, O15551]
